Assay results as given in patent US20100209439A1 (FORERUNNER PHARMA RESEARCH, published 2010).

Target: T1, Recombinant human Prominin-1 with C-terminal FLAG-tag, forcedly expressed on DG44 cells (human, UniProt O43490 20-865)
T1 construct: whole, on cells; Expressed in DG44 cells; also called Prominin-1 recombinant protein; cells forcedly expressing Prominin-1; not shown: FLAG-tag artificially added to the C terminus
T1 sequence (looked up): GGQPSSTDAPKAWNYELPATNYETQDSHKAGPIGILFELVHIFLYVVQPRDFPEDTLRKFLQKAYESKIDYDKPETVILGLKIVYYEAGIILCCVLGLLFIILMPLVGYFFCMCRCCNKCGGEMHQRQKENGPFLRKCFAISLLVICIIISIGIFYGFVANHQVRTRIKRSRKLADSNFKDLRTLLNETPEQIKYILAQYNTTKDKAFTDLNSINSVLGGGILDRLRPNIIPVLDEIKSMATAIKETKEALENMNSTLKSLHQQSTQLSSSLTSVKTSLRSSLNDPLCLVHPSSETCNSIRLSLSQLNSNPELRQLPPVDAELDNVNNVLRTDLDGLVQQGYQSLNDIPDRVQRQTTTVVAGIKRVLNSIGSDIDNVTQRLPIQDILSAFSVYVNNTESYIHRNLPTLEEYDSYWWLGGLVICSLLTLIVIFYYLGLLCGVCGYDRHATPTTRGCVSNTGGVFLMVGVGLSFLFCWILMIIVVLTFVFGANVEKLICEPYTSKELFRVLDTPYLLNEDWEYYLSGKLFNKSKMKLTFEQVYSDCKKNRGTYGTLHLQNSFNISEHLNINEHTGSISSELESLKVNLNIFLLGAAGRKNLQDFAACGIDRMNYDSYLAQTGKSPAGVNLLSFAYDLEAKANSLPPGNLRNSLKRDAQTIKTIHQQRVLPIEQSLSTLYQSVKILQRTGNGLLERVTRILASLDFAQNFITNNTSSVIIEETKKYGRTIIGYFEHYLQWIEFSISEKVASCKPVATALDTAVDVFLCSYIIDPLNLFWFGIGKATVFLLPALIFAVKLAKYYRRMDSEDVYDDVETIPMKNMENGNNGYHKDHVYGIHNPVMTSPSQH
Experiment: flow cytometry on DG44 cells forcedly expressing FLAG-tagged human Prominin-1

B1: AC133.1 antibody (mouse IgG1, produced by hybridoma HB-12346) (antibody, V domains shown)
VH: QVQLQQSGAELVRPGASVKLSCKASGYTFSDFEMHWVKQTPVHGLEWIGDIDPGTGDTAYNLKFKGKATLTTDKSSSTAYMELRSLTSEDSAVYYCTLGAFVYWGQGTLVTVSA
VL: DVVVTQTPLSLPVSFGDQVSISCRSSQSLANSYGNTYLSWYLHKPGQSPQLLIYGISNRFSGVPDRFSGSGSGTDFTLKISTIKPEDLGMYYCLQGTHQPYTFGGGTKLEIKR
notes: The rest is mouse IgG1 heavy chain and Ig kappa light chain; Purified from hybridoma supernatant on Protein G; also called AC133 antibody; A133.1 antibody
Q: Does B1 bind?
A: binds
